Results: patent publication US20230340160A1 (published 2023)

Legend:
[1] = biological target: T1, human CD3 expressed on Jurkat cells (human, UniProt P07766 23-207); assay: flow cytometry on Jurkat cells, 50 nM
T1 construct: CD3 complex on Jurkat cells (ATCC TIB-152); also called huCD3
Experimental: (§1) Binding of the different bispecific constructs to CD3 on Jurkat cells (ATCC #TIB-152), and the respective tumor antigen on target cells, was determined by FACS. Briefly, cells were harvested, counted and checked for viability. 0.15 - 0.2 million cells per well (in PBS containing 0.1% BSA; 90 µl) were plated in a round-bottom 96-well plate and incubated with the indicated concentration of the bispecific constructs and corresponding IgG controls (10 µl) for 30 min at 4° C. For a better comparison, all constructs and IgG controls were normalized to same molarity. After the incubation, cells were centrifuged (5 min, 350 × g), washed with 150 µl PBS containing 0.1% BSA, resuspended and incubated for further 30 min at 4° C. with 12 µl/well of a FITC-or PE-conjugated secondary antibody. Bound constructs were detected using a FACSCantoII (Software FACS Diva). The “(scFv)₂” molecule was detected using a FITC-conjugated anti-His antibody (Lucerna, #RHIS-45F-Z). For all other molecules, a FITC- or PE-conjugated AffiniPure F(ab′)2 Fragment goat anti-human IgG Fcγ Fragment Specific (Jackson Immuno Research Lab # 109-096-098 / working solution 1:20, or #109-116-170 / working solution 1:80, respectively) was used. Cells were washed by addition of 120 µl/well PBS containing 0.1% BSA and centrifugation at 350 × g for 5 min. A second washing step was performed with 150 µl/well PBS containing 0.1% BSA. Unless otherwise indicated, cells were fixed with 100 µl/well fixation buffer (BD #554655) for 15 min at 4° C. in the dark, centrifuged for 6 min at 400 × g and kept in 200 µl/well PBS containing 0.1% BSA until the samples were measured with FACS CantoII. EC50 values were calculated using the GraphPad Prism software.
(§2) In a first experiment, different bispecific constructs targeting human MCSP and human CD3 were analyzed by flow cytometry for binding to human CD3 expressed on Jurkat, human T cell leukaemia cells, or to human MCSP on Colo-38 human melanoma cells.

human FcγRIIIa-V158 = biological target: T2, human FcγRIIIa-V158 (human, UniProt P08637 17-208); assay: SPR (Biacore T100, 25 °C); receptor captured on anti-Penta His, construct as analyte; kinetic 1:1 fit, one concentration (1000 nM)
T2 construct: His-tagged recombinant receptor captured on anti-Penta His antibody in SPR; also called huFcγRIIIa-V158-K6H6; HuFcγRIIIa-V158-K6H6; not shown: K6H6 tag, named only by this short form
Experimental: For analyzing interaction of different Fc-variants with human FcγRIIIa-V158 and murine FcγRIV direct coupling of around 6,500 resonance units (RU) of the anti-Penta His antibody (Qiagen) is performed on a CM5 chip at pH 5.0 using the standard amine coupling kit (Biacore, Freiburg/Germany). HuFcγRIIIa-V158-K6H6 and muFcγRIV-aviHis-biotin are captured for 60 s at 4 and 10 nM respectively.
Constructs with different Fc-mutations are passed through the flow cells for 120 s at a concentration of 1000 nM with a flow rate of 30 µl/min. The dissociation is monitored for 220 s. Bulk refractive index differences are corrected for by subtracting the response obtained in a reference flow cell. Here, the Fc-variants are flown over a surface with immobilized anti-Penta His antibody but on which HBS-EP has been injected rather than HuFcγRIIIa-V158-K6H6 or muFcγRIV-aviHis-biotin. Affinity for human FcγRIIIa-V158 and murine FcγRIV was determined for wild-type Fc using a concentration range from 500 - 4000 nM.
The steady state response was used to derive the dissociation constant KD by non-linear curve fitting of the Langmuir binding isotherm. Kinetic constants were derived using the Biacore T100 Evaluation Software (vAA, Biacore AB, Uppsala/Sweden), to fit rate equations for 1:1 Langmuir binding by numerical integration.

[2] = biological target: T3, human MCSP expressed on tumor cells (human, UniProt Q6UVK1 30-2322); assay: flow cytometry on Colo-38 cells, 50 nM
T3 construct: whole, on cells; On Colo-38, WM266-4, MV-3 or MDA-MB-435 cells, as named in each row; also called huMCSP; Melanoma-associated Chondroitin Sulfate Proteoglycan
Experimental: as §1, §2

T3 sequence (Q6UVK1 30-2322): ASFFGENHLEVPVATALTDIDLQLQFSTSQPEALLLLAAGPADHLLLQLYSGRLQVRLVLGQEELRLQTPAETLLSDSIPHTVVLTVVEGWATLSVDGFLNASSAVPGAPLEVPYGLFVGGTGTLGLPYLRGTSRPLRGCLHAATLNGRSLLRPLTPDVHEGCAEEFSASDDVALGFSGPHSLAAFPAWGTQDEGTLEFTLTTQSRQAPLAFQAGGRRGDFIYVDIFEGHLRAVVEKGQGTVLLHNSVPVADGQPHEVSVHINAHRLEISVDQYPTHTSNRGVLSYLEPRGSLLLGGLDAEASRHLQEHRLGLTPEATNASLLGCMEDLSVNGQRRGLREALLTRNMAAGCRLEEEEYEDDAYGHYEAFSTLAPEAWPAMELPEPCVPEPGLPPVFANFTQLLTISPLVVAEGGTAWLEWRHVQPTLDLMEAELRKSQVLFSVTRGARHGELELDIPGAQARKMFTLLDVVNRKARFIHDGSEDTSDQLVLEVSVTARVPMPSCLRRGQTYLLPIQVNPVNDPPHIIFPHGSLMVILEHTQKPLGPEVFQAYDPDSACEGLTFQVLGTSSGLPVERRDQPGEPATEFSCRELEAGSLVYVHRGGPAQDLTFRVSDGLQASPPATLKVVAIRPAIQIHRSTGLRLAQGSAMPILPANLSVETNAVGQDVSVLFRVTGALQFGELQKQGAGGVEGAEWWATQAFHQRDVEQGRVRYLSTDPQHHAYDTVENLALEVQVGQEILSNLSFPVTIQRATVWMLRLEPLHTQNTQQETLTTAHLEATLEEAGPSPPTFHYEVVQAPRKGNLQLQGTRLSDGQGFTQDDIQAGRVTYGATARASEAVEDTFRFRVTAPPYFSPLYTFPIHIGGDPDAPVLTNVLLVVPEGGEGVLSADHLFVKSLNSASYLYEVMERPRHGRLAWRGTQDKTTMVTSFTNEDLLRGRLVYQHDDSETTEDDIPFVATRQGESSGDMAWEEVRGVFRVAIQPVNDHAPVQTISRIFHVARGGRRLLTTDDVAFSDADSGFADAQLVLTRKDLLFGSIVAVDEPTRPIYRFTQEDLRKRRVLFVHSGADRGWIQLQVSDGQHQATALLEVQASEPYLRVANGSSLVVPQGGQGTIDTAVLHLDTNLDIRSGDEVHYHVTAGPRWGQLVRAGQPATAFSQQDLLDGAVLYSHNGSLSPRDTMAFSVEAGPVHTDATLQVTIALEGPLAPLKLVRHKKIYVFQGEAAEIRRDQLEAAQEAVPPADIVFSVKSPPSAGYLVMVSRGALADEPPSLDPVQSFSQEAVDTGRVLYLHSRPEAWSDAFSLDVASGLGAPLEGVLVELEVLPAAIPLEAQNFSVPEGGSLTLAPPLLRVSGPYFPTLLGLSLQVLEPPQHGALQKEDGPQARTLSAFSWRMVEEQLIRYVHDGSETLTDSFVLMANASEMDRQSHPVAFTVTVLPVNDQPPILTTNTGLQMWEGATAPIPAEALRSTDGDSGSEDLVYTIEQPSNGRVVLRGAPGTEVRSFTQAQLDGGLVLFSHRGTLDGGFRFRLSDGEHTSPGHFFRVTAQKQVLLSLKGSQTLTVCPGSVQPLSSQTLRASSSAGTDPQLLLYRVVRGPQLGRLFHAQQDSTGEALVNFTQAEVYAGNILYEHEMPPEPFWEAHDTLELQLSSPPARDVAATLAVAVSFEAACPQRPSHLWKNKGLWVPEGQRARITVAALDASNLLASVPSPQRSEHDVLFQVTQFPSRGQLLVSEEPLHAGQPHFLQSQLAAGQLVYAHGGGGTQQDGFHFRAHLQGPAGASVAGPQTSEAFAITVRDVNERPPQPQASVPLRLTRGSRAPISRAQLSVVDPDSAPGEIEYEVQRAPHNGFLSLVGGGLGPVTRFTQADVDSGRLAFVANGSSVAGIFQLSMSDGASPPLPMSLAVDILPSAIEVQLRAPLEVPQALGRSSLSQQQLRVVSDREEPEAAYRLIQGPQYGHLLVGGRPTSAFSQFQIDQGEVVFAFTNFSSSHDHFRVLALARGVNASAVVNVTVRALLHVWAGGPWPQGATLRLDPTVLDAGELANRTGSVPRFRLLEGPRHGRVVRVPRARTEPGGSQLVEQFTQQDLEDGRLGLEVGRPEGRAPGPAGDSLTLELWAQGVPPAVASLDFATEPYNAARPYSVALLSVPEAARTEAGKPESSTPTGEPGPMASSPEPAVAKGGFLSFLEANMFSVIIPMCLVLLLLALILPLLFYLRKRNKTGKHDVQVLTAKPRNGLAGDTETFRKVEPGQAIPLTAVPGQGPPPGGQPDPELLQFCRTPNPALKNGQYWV
T2 sequence (P08637 17-208 F176V): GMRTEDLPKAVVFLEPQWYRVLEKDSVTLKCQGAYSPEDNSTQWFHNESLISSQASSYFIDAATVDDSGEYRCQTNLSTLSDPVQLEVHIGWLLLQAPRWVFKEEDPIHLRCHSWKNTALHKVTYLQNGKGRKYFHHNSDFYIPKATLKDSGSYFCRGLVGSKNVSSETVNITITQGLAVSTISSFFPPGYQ
T1 sequence (P07766 23-207 limits assumed): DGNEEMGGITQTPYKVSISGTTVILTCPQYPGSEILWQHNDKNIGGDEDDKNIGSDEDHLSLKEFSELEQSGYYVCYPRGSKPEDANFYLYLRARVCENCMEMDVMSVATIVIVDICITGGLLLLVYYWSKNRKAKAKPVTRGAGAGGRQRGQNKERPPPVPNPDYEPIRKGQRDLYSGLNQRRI

B1: “2+1 IgG scFab, LALA” (anti-MCSP/anti-huCD3) (bispecific antibody)
heavy 1: not shown
heavy 2: EVQLQESGPGLVKPSQSLSLTCSVTGYSITSGYYWNWIRQFPGNKLEWMGYITYDGSNNYNPSLKNRISITRDTSKNQFFLKLNSVTTEDTATYYCADFDYWGQGTTLTVSSASTKGPSVFPLAPSSKSTSGGTAALGCLVKDYFPEPVTVSWNSGALTSGVHTFPAVLQSSGLYSLSSVVTVPSSSLGTQTYICNVNHKPSNTKVDKKVEPKSCDKTHTCPPCPAPEAAGGPSVFLFPPKPKDTLMISRTPEVTCVVVDVSHEDPEVKFNWYVDGVEVHNAKTKPREEQYNSTYRVVSVLTVLHQDWLNGKEYKCKVSNKALPAPIEKTISKAKGQPREPQVCTLPPSRDELTKNQVSLSCAVKGFYPSDIAVEWESNGQPENNYKTTPPVLDSDGSFFLVSKLTVDKSRWQQGNVFSCSVMHEALHNHYTQKSLSLSPGK
light: DIVLTQSPSSLSASLGDRVTISCSASQGIRNYLNWYQQRPDGTVKLLIYYTSSLHSGVPSRFSGSGSGTDYSLTISNLEPEDIATYYCQQYSKLPWTFGGGTKLEIKRTVAAPSVFIFPPSDEQLKSGTASVVCLLNNFYPREAKVQWKVDNALQSGNSQESVTEQDSKDSTYSLSSTLTLSKADYEKHKVYACEVTHQGLSSPVTKSFNRGEC
notes: also called Fc-LALA
In the case of B1, the binding result [1] is reported as “binds”, the Kd (human FcγRIIIa-V158) is reported as 2130 nM and the binding result [2] is reported as “binds”.
